Experimental data from the supplement of paper PMC11246515.
± gives the standard deviation of the averaged measurements.

Test: total protein half-life in vivo (active degradation + dilution); higher = more stable protein
[1] = E. coli NCM3722 delta-clpP delta-lon delta-hslV, growth: N-lim chemostat, doubling time 6 h
[2] = E. coli NCM3722 delta-clpP, growth: N-lim chemostat, doubling time 6 h
[3] = E. coli NCM3722 delta-hslV, growth: N-lim chemostat, doubling time 6 h
[4] = E. coli NCM3722 delta-smpB, growth: N-lim chemostat, doubling time 6 h
[5] = wild type E. coli NCM3722, growth: C-lim chemostat, doubling time 3 h
[6] = wild type E. coli NCM3722, growth: C-lim chemostat, doubling time 6 h
[7] = wild type E. coli NCM3722, growth: C-lim chemostat, doubling time 12 h
[8] = wild type E. coli NCM3722, growth: N-lim chemostat, doubling time 6 h
[9] = wild type E. coli NCM3722, growth: N-lim chemostat, doubling time 12 h
[10] = wild type E. coli NCM3722, growth: P-lim chemostat, doubling time 6 h
[11] = wild type E. coli NCM3722, growth: P-lim chemostat, doubling time 12 h
[12] = E. coli NCM3722 delta-lon, growth: N-lim chemostat, doubling time 6 h

Sequence: MKIRALLVAMSVATVLTGCQNMDSNGLLSSGAEAFQAYSLSDAQVKTLSDQACQEMDSKATIAPANSEYAKRLTTIANALGNNINGQPVNYKVYMAKDVNAFAMANGCIRVYSGLMDMMTDNEVEAVIGHEMGHVALGHVKKGMQVALGTNAVRVAAASAGGIVGSLSQSQLGNLGEKLVNSQFSQRQEAEADDYSYDLLRQRGISPAGLATSFEKLAKLEEGRQSSMFDDHPASAERAQHIRDRMSADGIK
- total protein half-life in vivo [1]: 5.03 ± 0.95 h
- total protein half-life in vivo [2]: 5.9 ± 0.43 h
- total protein half-life in vivo [3]: 5.87 ± 0.4 h
- total protein half-life in vivo [4]: 3.99 ± 0.98 h
- total protein half-life in vivo [5]: 2.69 ± 0.21 h
- total protein half-life in vivo [6]: 5.11 ± 0.41 h
- total protein half-life in vivo [7]: 8.35 ± 1.9 h
- total protein half-life in vivo [8]: 6.22 ± 0.35 h
- total protein half-life in vivo [9]: 10.2 ± 2.9 h
- total protein half-life in vivo [10]: 3.16 ± 0.24 h
- total protein half-life in vivo [11]: 9.05 ± 5.4 h

Sequence: MKISLVVPVFNEEEAIPIFYKTVREFEELKSYEVEIVFINDGSKDATESIINALAVSDPLVVPLSFTRNFGKEPALFAGLDHATGDAIIPIDVDLQDPIEVIPHLIEKWQAGADMVLAKRSDRSTDGRLKRKTAEWFYKLHNKISNPKIEENVGDFRLMSRDVVENIKLMPERNLFMKGILSWVGGKTDIVEYVRAERIAGDTKFNGWKLWNLALEGITSFSTFPLRIWTYIGLVVASVAFIYGAWMILDTIIFGNAVRGYPSLLVSILFLGGIQMIGIGVLGEYIGRTYIETKKRPKYIIKRVKK
- total protein half-life in vivo [1]: 6.26 ± 0.44 h
- total protein half-life in vivo [2]: 6.88 ± 1.2 h
- total protein half-life in vivo [3]: 7.42 ± 0.82 h
- total protein half-life in vivo [4]: 6.23 ± 0.34 h
- total protein half-life in vivo [5]: 3.54 ± 0.22 h
- total protein half-life in vivo [6]: 6.05 ± 0.38 h
- total protein half-life in vivo [8]: 6.19 ± 0.16 h
- total protein half-life in vivo [10]: 6.08 ± 0.13 h
- total protein half-life in vivo [11]: 13.7 ± 0.2 h

Sequence: MKISRETLHQLIENKLCQAGLKREHAATVAEVLVYADARGIHSHGAVRVEYYAERISKGGTNREPEFRLEETGPCSAILHADNAAGQVAAKMGMEHAIKTAQQNGVAVVGISRMGHSGAISYFVQQAARAGFIGISMCQSDPMVVPFGGAEIYYGTNPLAFAAPGEGDEILTFDMATTVQAWGKVLDARSRNMSIPDTWAVDKNGVPTTDPFAVHALLPAAGPKGYGLMMMIDVLSGVLLGLPFGRQVSSMYDDLHAGRNLGQLHIVINPNFFSSSELFRQHLSQTMRELNAITPAPGFNQVYYPGQDQDIKQRKAAVEGIEIVDDIYQYLISDALYNTSYETKNPFAQ
- total protein half-life in vivo [5]: 2.88 h
- total protein half-life in vivo [6]: 5.52 ± 0.59 h
- total protein half-life in vivo [11]: > 16 h

Sequence: MKITKITTYRLPPRWMFLKIETDEGVVGWGEPVIEGRARTVEAAVHELGDYLIGQDPSRINDLWQVMYRAGFYRGGPILMSAIAGIDQALWDIKGKVLNAPVWQLMGGLVRDKIKAYSWVGGDRPADVIDGIKTLREIGFDTFKLNGCEELGLIDNSRAVDAAVNTVAQIREAFGNQIEFGLDFHGRVSAPMAKVLIKELEPYRPLFIEEPVLAEQAEYYPKLAAQTHIPLAAGERMFSRFDFKRVLEAGGISILQPDLSHAGGITECYKIAGMAEAYDVTLAPHCPLGPIALAACLHIDFVSYNAVLQEQSMGIHYNKGAELLDFVKNKEDFSMVGGFFKPLTKPGLGVEIDEAKVIEFSKNAPDWRNPLWRHEDNSVAEW [Q6BF17]
- total protein half-life in vivo [1]: 3.02 ± 0.17 h
- total protein half-life in vivo [2]: 1.75 ± 0.17 h
- total protein half-life in vivo [4]: 1.27 ± 0.18 h
- total protein half-life in vivo [5]: 2.67 ± 0.21 h
- total protein half-life in vivo [6]: 3.47 ± 0.4 h
- total protein half-life in vivo [7]: 5.79 ± 0.88 h
- total protein half-life in vivo [8]: 2.5 h
- total protein half-life in vivo [9]: 1.84 h
- total protein half-life in vivo [10]: 4.36 ± 0.18 h
- total protein half-life in vivo [11]: 7.25 ± 0.96 h

Sequence: MKIVIAPDSYKESLSASEVAQAIEKGFREIFPDAQYVSVPVADGGEGTVEAMIAATQGAERHAWVTGPLGEKVNASWGISGDGKTAFIEMAAASGLELVPAEKRDPLVTTSRGTGELILQALESGATNIIIGIGGSATNDGGAGMVQALGAKLCDANGNEIGFGGGSLNTLNDIDISGLDPRLKDCVIRVACDVTNPLVGDNGASRIFGPQKGASEAMIVELDNNLSHYAEVIKKALHVDVKDVPGAGAAGGMGAALMAFLGAELKSGIEIVTTALNLEEHIHDCTLVITGEGRIDSQSIHGKVPIGVANVAKKYHKPVIGIAGSLTDDVGVVHQHGIDAVFSVLTSIGTLDEAFRGAYDNICRASRNIAATLAIGMRNAG
- total protein half-life in vivo [1]: 3.21 ± 0.32 h
- total protein half-life in vivo [2]: 2.26 ± 0.32 h
- total protein half-life in vivo [12]: 2.05 h
- total protein half-life in vivo [4]: 3.17 ± 1.2 h
- total protein half-life in vivo [5]: 3.01 ± 0.68 h
- total protein half-life in vivo [6]: 5.02 ± 1.3 h
- total protein half-life in vivo [7]: 9.27 ± 0.37 h
- total protein half-life in vivo [8]: 2.08 ± 0.076 h
- total protein half-life in vivo [9]: 10.9 h
- total protein half-life in vivo [10]: 5.89 ± 0.76 h
- total protein half-life in vivo [11]: 10.4 ± 2.5 h

Sequence: MKKAGLLFLVMIVIAVVAAGIGYWKLTGEESDTLRKIVLEECLPNQQQNQNPSPCAEVKPNAGYVVLKDLNGPLQYLLMPTYRINGTESPLLTDPSTPNFFWLAWQARDFMSKKYGQPVPDRAVSLAINSRTGRTQNHFHIHISCIRPDVRKQLDNNLANISSRWLPLPGGLRGHEYLARRVTESELVQRSPFMMLAEEVPEAREHMGRYGLAMVRQSDNSFVLLATQRNLLTLNRASAEEIQDHQCEILR
- total protein half-life in vivo [1]: 6.38 ± 0.31 h
- total protein half-life in vivo [2]: 6.726 ± 0.048 h
- total protein half-life in vivo [3]: 6.364 ± 0.022 h
- total protein half-life in vivo [4]: 6.59 ± 0.21 h
- total protein half-life in vivo [5]: 3.17 ± 0.07 h
- total protein half-life in vivo [6]: 7.09 ± 1 h
- total protein half-life in vivo [7]: 12.8 ± 0.32 h
- total protein half-life in vivo [8]: 6.45 ± 0.28 h
- total protein half-life in vivo [10]: 6.13 ± 0.2 h
- total protein half-life in vivo [11]: 13.6 ± 0.51 h

Sequence: MKKALQVAMFSLFTVIGFNAQANEHHHETMSEAQPQVISATGVVKGIDLESKKITIHHDPIAAVNWPEMTMRFTITPQTKMSEIKTGDKVAFNFVQQGNLSLLQDIKVSQ
- total protein half-life in vivo [2]: 2.72 h
- total protein half-life in vivo [3]: 5.07 ± 1 h
- total protein half-life in vivo [12]: 5.07 ± 0.12 h
- total protein half-life in vivo [4]: 4.22 h
- total protein half-life in vivo [5]: 2.8 h
- total protein half-life in vivo [6]: 4.69 h
- total protein half-life in vivo [7]: 6.31 ± 4.1 h
- total protein half-life in vivo [8]: 4.84 ± 0.35 h
- total protein half-life in vivo [9]: 7.67 ± 1.3 h
- total protein half-life in vivo [10]: 4.39 ± 1 h
- total protein half-life in vivo [11]: 7.41 ± 1.9 h

Sequence: MKKATCLTDDQRWQSVLARDPNADGEFVFAVRTTGIFCRPSCRARHALRENVSFYANASEALAAGFRPCKRCQPEKANAQQHRLDKITHACRLLEQETPVTLEALADQVAMSPFHLHRLFKATTGMTPKAWQQAWRARRLRESLAKGESVTTSILNAGFPDSSSYYRKADETLGMTAKQFRHGGENLAVRYALADCELGRCLVAESERGICAILLGDDDATLISELQQMFPAADNAPADLMFQQHVREVIASLNQRDTPLTLPLDIRGTAFQQQVWQALRTIPCGETVSYQQLANAIGKPKAVRAVASACAANKLAIIIPCHRVVRGDGTLSGYRWGVSRKAQLLRREAENEER
- total protein half-life in vivo [2]: 3.82 ± 0.28 h
- total protein half-life in vivo [3]: 2.03 h
- total protein half-life in vivo [12]: 3.25 ± 0.14 h
- total protein half-life in vivo [4]: 2.46 h
- total protein half-life in vivo [6]: 3.38 h
- total protein half-life in vivo [7]: 4.07 h
- total protein half-life in vivo [8]: 2.22 h
- total protein half-life in vivo [9]: 3.48 h
- total protein half-life in vivo [10]: 1.81 h
- total protein half-life in vivo [11]: 3.5 ± 0.11 h
